Reference: the DeepSol protein solubility set

Test: soluble on expression in E. coli; label from the status in PepcDB or PDB records

Soluble on expression in E. coli, not soluble:
GPGSMPPSQTVEYEEDFGHNLMIHREYISKRCRDRVSFELSALSYSNLELRRGQEHLAGIMNRERRGVSVGASGAPDDQVQMQTDVDANSREVLSARYLFNERRLQFCDRFQNFFQSKLENSAASDSNGHEKQHLFSLMEACAVIFGCETEAARETYYRMFLGLDSETLLEEDEALRNRIADAKLVQRVLENNKGRQEVTQSPKLQQQQDQGKPLHAVSSGTSLLNDCEEERFISSIPELSLFEDETEARANGFVEGEDDVKANNGDLTAGSFSSPASSVNLPEEFEEYAPLYKAYITHAVGKGPVASYDISTLGSTGLTAERRRWRTLMEKIVREDYHTMTEVEQMDAIVLNEQLHTVKFFDLKIGDAIRDILQLLQRETGVGSSVNRDTPVGISPNNPERRV, GPGSMPTLAVAKDYICRLIGKSYTDEEFSDLCFQFGLELDDITSEKEMFMREQGKSAKANVAPAEAPAHLSEEKLYKIDTPANRHDLLTAEGMACALRVFMGTMPLPNYRVLNRASPLYRMSVEKSVKNVRDYVVCAVLRNIHFNERSYNSFIDYQERLHAGLARRRTLASVGTHDLDKVNTTDFIFACRPRETVRFVPLRQTRELNCAGDGLAQYYAEDRHIGKYVPLISSFPTYPVVYDGTGQNVLSLPPIINSHYSAISVDTRNIFIECTAPDHYKAQVLVNQLVCAFSVYCEDPFTVEAVQVNYEEPTPDGTRSLVTPTMETKEMTMNIERLNSIIGIKMKSGAECAQLLKMMMYTIKETTESEVTVTVPPMRTDVIGVADVMEDVAIAYGYDNITYVECKTHGPVTQTPLSKVAQLLRTEMACAGYTELLTLSLCSRADAFESLGRVDNDVAAHIANPQTMEFQVCRPSLLPGILKTLATNKSKPLPQRFFECADVVLLDNERNFPPVLELKTDYASCGARNQRHLAAAHCNGSSSGFESIHGLTELALLKLGVPSKAAIADDYEGDYYTLEKGEDGAFFPGRAMDIILHRAGQAVRIGHLGVIHPNTLKAYDIPSPCSYMELNIQFLCVPL, GPGSMSASSAPDRVYVGKRLHFTNGSRQLVRCGTRNIAVVCNRNELYAIDNACYHHGGPLLLGDIEEMGGHPCIVCPWHSYKIALDTGEGLYLGVELSPAGGTPKQVVRSKGCKQRVHKVEVDEADDVYVLVDLSGPTLESDTYASMELANRERPMSLPVDGGGRGLRVPGIHSHAGVELRSGQVFQHMGSLAEAGGNTGTRGANSLDHAQKTRPHEITSRGSSCSSPTTRLMVSCVAITDVCPQVRQFDFVHHAGPLLRHAELGEYVELELPIKERRTANGGGGQAVDLLSSSSAPAATAGEPMRRRWTICDMNHNSTLFSIIVKAAGTDTQASGSAWLHEHSLSVPLPITRVGGTFTFARHRDTIRRVGGRVLWLTAGVGMTPAYAFLNASLGNSLYVASAEPLHVVHLHSNRTLETVPKLEQFGRWQREFPRSALDTAEKTSGGSGARKPGKTYVMELFIALSTDAGQGQRTSPGSSPPDSCPVATITHRSRLQPANVSAAVQKYFGADMQLAYVCGPQKFVKDCTEALVSTGVPESHILTDDP, GPGSMSERDKQRRSLERERMATVIFSYISHLMRTHEEETTVADEFIPSTKFFRTETLPNISLIHYVRRVVEHMNCSPEAYIFALAYIRRLFVAGFPLHTHSIYRLLLTAVVVATRVRDDFLFSKKYYSKVGGVTACDLNMMEIHFLADLLEYRVEVSPDEYRVLCNEITALLSSEVSKFDGNSSNPNNDTAAEGVASIQEPVGNSKPRWMSECCLYW, GPGSMSFSHFVPPISRRRMFFEDQLDEALSREGSPRLSTSNTVGGADLVAAGAANDETFPFPSHAAPGHLLKSLIQATENERCAPDILPYPEAIVDSVVAQIVAQNEQIRLLGTDERQKAAGSDSGVSLLPFKPSDIMALEVQRAQFFLCELLRCRLRKIEALALTINYESQSGAEAHTQLREHLSHNEIVVADRLAELISKCVRQAGLQSAPSELQQLVPNAPYAEGNEVLPIPDIDHYVFCVVLDDLGVVRLGDDAEQTVHAGEVFIVPYRTFRPYILEGRVRLV, GPGSMSHSSLKRAPEITPQAATDKDSILCRSAHAKPLSFTTAPRDSAMVKLDVTLLRFMEDEDFRVLTALEMAMRNHDVAPTALVERIAQLPHGGCRKRLNNLLKHKMIHHENTMYDGYAMKYGAYDYLALRTLSKRGTCTGVGHRIGCGKESDIILVRDEAGHECVLKLQRLGRCSFRSVARNRDYKGNGRARHGESWFYLSRLASQKEYSFMKMLYDEGFPVPKPIDQNRHALLMELVPGTLLNNITELGDASKVYRRALELMVKLAESGLIHGDFNEFNLMITDDQRVIMIDFPQMISINHPNASELFDRDVQNLANFFHRRFKVDTTWFPSLEKDVVRKNELDKQVYASGHFTRKQQEDLERLMLEGFQRGEKSDDEAGSQARDSDASDDDGDENALQRSDIGNADVDAGVAGKFMTIPGFARGGESDEEREDSSDDDASEGRLLDEAMGAARERRQGEFYAHNADRNANFFPDGKINEDHVKHQIRKSIRRKDNHDFNRHLHRNVQKGRQKQKIQRQLKSSNGGGFFD, GPGSMSPRTSERILALGVRRLRIRSSSTASSSCNGVVEFSTCGGAGGPSYRPLAAMAMIANIQAVAFTDSRRSVFQNKKTLPSPHGRNITPDAAETKGRALFSDSNSECFPADLDPPSASQLDRILPSLNQLRDEIPSSEYVEELVRRQGVSTDLWSNGEKNNSADDDDE, GPGSMSYSGRKLKYFVEDSDGWLRRNQQVAEQFVMAEDDRETKEMLSLLAPRAHFASFWGVVRGLPAAVALQAQEREHLRITWTSGLQPLTSRTFARNGYVHVLDRERMSFIPVLGPWLSSFFQRPVQELLVVREGRVVFRGMGYVWDIGKH, GPGSMVALIDTSCYSADCTLSALVPQHAMKPYRLLVTMELIASLGLKRFCRTVVPPPIGIKELLTYHAEDYILNLGLHSNRSWLWNTEVSKVTFSGDCPPVEGIVEYSLSTVSGSLMAAVLLNSGAVDTAIHWGGGMHHAKCGECSGFCYVNDIVIAIIELLKCHDRVLYVDLDMHHGDGVDEAFCRSRRVFTLSLHKFGESFFPGTGHPRDVGIGNGRHYTMNLAMWDGVDDFYYTTVFERALRSIVKRFNPNVVVLQCGADSLAGDRLGHFNLSSWGHGKCVEEVKKLGLPMLVVGGGGYTLRNVAKLWAYETSILCGKRLPLNTVIPLHRMPLSGWLFEESPQLLVSQDEENKPLPGVNVQRSFRVIIEQIDKHCPNIMTV, GPGSMYPGAVGCPWRRLDACVETSYSWALNVMSTNTSKAAVRQSKLTWDEGELTSARLKNDRNGKKARISASGSFRIRAMILACAPSSLAATPADNLPETASTLSFCEMLFNAGVAPLKTPAISSFEACTDVRVCVEAFKTGMPLFSSADEGASGNFFRYPPAAITTACSAETKLIDQSCFTRTTPFRHMGNAA

Soluble on expression in E. coli, soluble:
GPGSMSAIKRSLNVGVVGMGNMGIPITRNLAFKARSAMYLQIHSRTLSKARQVCDDMSADGATCAMRIHDRYSTMTKWCDVILLTLAHRAASRKVLLEDSEALVTNARPGQIIVDHTTVDMELSRECAHEAERRGAVFLDAPMSGSPKQAFNNQLVLMVGGPAEQVQRVSPIFRMYADHIHHMGANGSGTAAKLLSQALVASHNAAAAEAMTIANRLGIEDYQKLIQVLDASWGSSTMLRRNAPTMQDLVRNPDKLAPSSGASIDNLLEDLALLDASLPKIEKGDNGNGGREVEEERFPVLDASLRMLGAAVESGMGDRDMAAVIHYIPAAAAMEKEEGVRVQPRGLTSGAFLDRNATGKVNSGPAAAAGAAVAASSPPTPAEIEMDPGSLADSLSAAESSSNGKGSTTQAASIAEPLTTASSQQPPAFTPEDFY, GPGSMSAVASDDSAGHVVDPVQHTHRYVQEHRLNELFGHLLQLVLYHRPDDPRAFLAEEVRKIREEKVSLSLFTERDLETMFEMIDATAQRWITVAQLRNTCRNLATASSAGNVSTGGGDLTAEQEAAIAGAGDAAGRVTMDKFKEVLSSLLLTKNKWS, GPGSMSSIEELKVVRLFRALNTMIQLCHDRGYVIRHPSAIAEAVQNPELYNNEEGLDHDWFLRHFVISPDRAARSIRAKQRGDGSSRSGPRREAKNEEDGGDADKPGEYDVAADEDEALRRAANGEWVCMRNAMRLTCSVDPRRATLASSVLTGAPTNKAPSSAPAVTAEPKDDDGDVPYAVAAAAVDAKSKEKAAKNALMVFFSGSPKLSMKEVHSFREKALKKKASSMIVVTNKIDPGVRMDVQELSGRMDEATGAELLSIQVFEEEALAFNVVRHETVPRHVALTPAEAEAFLAERKLNVAQLPRMQESDPLVQYLGLQRGSIVHITREGKQSGPYSMYRHVI, GPGSMSTEDASIAYAKKHKIHHLFELMATKVLLNRPENPFAYLRNLLKDVEESEKNRVPYDPTEVHFNNDVGAAAPAAGNSGGSGAAAPAAALTSAKKEKRTVTLATFGLDRAGKTCALSVLESGEADKKYTPTVGFAPIKFPLDDYNLCVFDLGGAANFRGIWVHYYHDCFGIVYVIDSAASDERVAESLKVLHETLQHPYVKGKPLLVLANKKDLPESRGVGVVPQGFLEEAMGEPGAPHRVLATCAIEDDPVLVEGIEWLLEAVSKEYDTLAKRVAKDSNEVKSEKARQRAARLAAIRGEDR, GPGSMSTLKEVNGRLNTQPFVSGFSPSSEDARIFNEMFGSNVNVIQWVARMASYYQAERDEILNAGTEKKATEPAKKAAAPAPAAAAAAEEEDDIDLFGETTEEEKAALEAKKAKDAEKKKAKKEVIAKSSILFDIKAWDDTIDLEALAQKLHAIQRDGLIWGDHKLVPVAFGVKKLQQLIVIEDDKVSGDDLEEMVMGFEDEVQSMDIVAWNKI, GPGSMSYYDKSSSVGYDERDKELNEELEAMLARTPPHIQRHLQQRIHDGILQRMKEETTRKCWEFVKKYEGCVNSVQPYNIRECLPHRDALNDCAHEINCEDNYQKYRLLYLHGELLKLHEHRTGQKMEALKSRVPDSIRTWKSDYAPKYADMMSEVGAKPFTGEGENLDDE, GPGSMTANSKPARFLALAAAKQGTTANVAFNALSVYAKMELSKQTNKMLKVHAATTPLVALIQKRTGIKAAAEAVRQTQTAAKATATVSSYDNSEINPQYIGADIAAKMEQMRKHESYGKIKKDGHTLSAPSTAKFPTAEDSTLRKITISVAVQVLCTGSSNSKWQISGKLEG, GPGSMTELVPPEAIRFANGEPLCAYHECYRCFDGRDILFRLVNVEKKQWFFYNDTADTIAHVRAVFYPGSVIRPLQRADMHVIPGPTGVADETCSIEVTLDIQPGFTESFIEGEHKGFHLEFRTETAPTKEVVFEYRRPMVPYDKIYRCFKNGNGLLFRLVDERVRQWFFYNDTRDLMMKVSVTFANSAEVRPLGCTALGAPHADTAPESVVYTLLIAPGCTEPFIEGNPVTYTLEFAAEPVDAPVTPVLEEPVQYLHGSPDVAVIPHQTHVFKCFKEHGNGLLFRVVDDVNTIWAFYNDTPDYVMTANMRYPSTSDIRLAPGVQVIADSEREGGFVAAVEVLPLATVPFLVGSPEQYELAFAATPVAPLTPSPTTSPEPSSPPQLADAADAAATVPPALPVPEEAPVYCNSGPDLTVMPNIDEVYKCFKDYGNGLVFRLVDKVQRRWAFYNDTTDIVALVRVQFSPGAHIQPLGHTVLGCDLESGSVLHELRVNPLETALFVEGDVDIFTTKFVAEEIQT, GPGSMTIDAVSPLFADISREYGAAFDAAIARNVADALAEDVGSGDQTGRLVPDGAPRRARVIVREDAVLCGVPWFDAVVRAVDPSIEVDWRHREGDRMSADSTVCELRGPARALLTAERNALNFLQLLSGVASATRQYVDRIADTRARILDTRKTLPGLRLAQKYAVRVGGGANQRLALYAGILIKENHIAAAGGVGEALDAAFALNAEVPVQIEVETLDQLRTALAHGARSVLLDNFTLDMMRDAVRVTEGRAVLEVSGGVNFDTVRAIAETGVDRISIGALTKDVRATDYSMRIVE
